The target in experiment [1] is microtubules (porcine brain tubulin, taxol-stabilized) (porcine) (UniProt P02550). In words: co-sedimentation; high-speed cosedimentation; 1 uM tubulin (MTs) with 1-12 uM FH1FH2; bound against free protein fitted with a hyperbolic function; methods in the supplement.
Experiment [2] has as its target actin filaments (rabbit muscle actin, polymerized) (rabbit) (UniProt P68135). In words: co-sedimentation; high-speed cosedimentation; 3 uM actin (AFs) with 0.25-8 uM FH1FH2; bound against free protein fitted with a hyperbolic function; three independent experiments; methods in the supplement.

OsFH15 FH2 (truncated recombinant protein containing the FH2 domain of OsFH15), sequence (Q69MT2 340-768): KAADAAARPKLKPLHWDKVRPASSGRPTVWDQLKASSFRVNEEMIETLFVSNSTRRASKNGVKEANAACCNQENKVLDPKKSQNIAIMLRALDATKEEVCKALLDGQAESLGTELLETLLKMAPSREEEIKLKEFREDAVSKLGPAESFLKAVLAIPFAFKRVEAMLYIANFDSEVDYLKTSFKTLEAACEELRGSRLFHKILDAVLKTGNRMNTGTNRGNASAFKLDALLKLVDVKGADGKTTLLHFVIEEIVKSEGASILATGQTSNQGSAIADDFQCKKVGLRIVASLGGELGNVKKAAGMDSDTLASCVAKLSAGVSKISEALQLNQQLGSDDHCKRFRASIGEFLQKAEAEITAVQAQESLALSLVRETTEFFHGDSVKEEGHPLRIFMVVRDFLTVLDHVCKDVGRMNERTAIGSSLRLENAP

Turning to “OsFH15 FH1FH2 (truncated recombinant protein containing the FH1FH2 domain of OsFH15) (domain or fragment)”, the equilibrium dissociation constant (Kd) in experiment [1] is 1.02 µM; in experiment [2], 0.82 µM.
“OsFH15 FH2 (truncated recombinant protein containing the FH2 domain of OsFH15) (from UniProt Q69MT2 340-768) (domain or fragment)”: the dissociation constant (Kd) in experiment [1] is 1.81 µM.
